Source: patent US20080045463

T1: biotinylated HIF-1α ODD peptide, Q16665
T1 chain: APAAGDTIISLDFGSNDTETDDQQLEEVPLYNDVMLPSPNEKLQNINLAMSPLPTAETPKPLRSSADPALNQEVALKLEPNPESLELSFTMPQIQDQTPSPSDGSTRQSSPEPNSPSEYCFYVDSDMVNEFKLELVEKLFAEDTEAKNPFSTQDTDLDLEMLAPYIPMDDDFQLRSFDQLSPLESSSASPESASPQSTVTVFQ

B1: Human HPH-2 (protein)
chain: MANDSGGPGGPSPSERDRQYCELCGKMENLLRCSRCRSSFYCCKEHQRQDWKKHKLVCQGSEGALGHGVGPHQHSGPAPPAAVPPPRAGAREPRKAAARRDNASGDAAKGKVKAKPPADPAAAASPCRAAAGGQGSAVAAEAEPGKEEPPARSSLFQEKANLYPPSNTPGDALSPGGGLRPNGQTKPLPALKLALEYIVPCMNKHGICVVDDFLGKETGQQIGDEVRALHDTGKFTDGQLVSQKSDSSKDIRGDKITWIEGKEPGCETIGLLMSSMDDLIRHCNGKLGSYKINGRTKAMVACYPGNGTGYVRHVDNPNGDGRCVTCIYYLNKDWDAKVSGGILRIFPEGKAQFADIEPKFDRLLFFWSDRRNPHEVQPAYATRYAITVWYFDADERARAKVKYLTGEKGVRVELNKPSDSVGKDVF
B2: Human HPH-1 (protein)
chain: MPLGHIMRLDLEKIALEYIVPCLHEVGFCYLDNFLGEVVGDCVLERVKQLHCTGALRDGQLAGPRAGVSKRHLRGDQITWIGGNEEGCEAISFLLSLIDRLVLYCGSRLGKYYVKERSKAMVACYPGNGTGYVRHVDNPNGDGRCITCIYYLNKNWDAKLHGGILRIFPEGKSFIADVEPIFDRLLFFWSDRRNPHEVQPSYATRYAMTVWYFDAEERAEAKKKFRNLTRKTESALTED

Biological target: T1, biotinylated HIF-1α ODD peptide, Q16665

| Protein | ^35S-pVHL pulldown enzyme assay activity (Pro564 hydroxylation of the peptide) |
| --- | --- |
| B1 | the ^35S-pVHL pulldown enzyme assay activity of each HPH homologue was dependent on 2-OG, Fe(II), and ascorbate |
| B2 | As exemplified by HPH-1, the ^35S-pVHL pulldown enzyme assay activity of each HPH homologue was dependent on 2-OG, Fe(II), and ascorbate |
